Measurements as given in article PMC3927142.

Key:
Assay in all cases: flow cytometry on cells
E6.2.10 (human) = E6.2.10 (human) (UniProt P02751)
EI1.4.1 (human) = EI1.4.1 (human) (UniProt P02751)
EI2.4.6 (human) = EI2.4.6 (human) (UniProt P02751)

Substance: EGFR mutant 404SG (from UniProt P00533 25-1210) (receptor)
- Kd (E6.2.10 (human)): 0.96 nM
- Kd (EI1.4.1 (human)): 0.85 nM
- Kd (EI2.4.6 (human)): 2.9 nM
